Measurements as given in US10562947B2, “Compositions and methods for preventing or treating diseases, conditions or processes characterized by aberrant fibroblast proliferation and extracellular matrix deposition” (MOERAE MATRIX, INC., priority 2011, dated 2020).

Columns and labels:
Assay in all cases: Kinase Profiling Assay
Format in all cases: biochemical
Settings in all cases: 100 μM peptide
[1] = target: T1, DYRK2(h) (Homo sapiens, UniProt Q92630)
T1 sequence (Q92630 1-601): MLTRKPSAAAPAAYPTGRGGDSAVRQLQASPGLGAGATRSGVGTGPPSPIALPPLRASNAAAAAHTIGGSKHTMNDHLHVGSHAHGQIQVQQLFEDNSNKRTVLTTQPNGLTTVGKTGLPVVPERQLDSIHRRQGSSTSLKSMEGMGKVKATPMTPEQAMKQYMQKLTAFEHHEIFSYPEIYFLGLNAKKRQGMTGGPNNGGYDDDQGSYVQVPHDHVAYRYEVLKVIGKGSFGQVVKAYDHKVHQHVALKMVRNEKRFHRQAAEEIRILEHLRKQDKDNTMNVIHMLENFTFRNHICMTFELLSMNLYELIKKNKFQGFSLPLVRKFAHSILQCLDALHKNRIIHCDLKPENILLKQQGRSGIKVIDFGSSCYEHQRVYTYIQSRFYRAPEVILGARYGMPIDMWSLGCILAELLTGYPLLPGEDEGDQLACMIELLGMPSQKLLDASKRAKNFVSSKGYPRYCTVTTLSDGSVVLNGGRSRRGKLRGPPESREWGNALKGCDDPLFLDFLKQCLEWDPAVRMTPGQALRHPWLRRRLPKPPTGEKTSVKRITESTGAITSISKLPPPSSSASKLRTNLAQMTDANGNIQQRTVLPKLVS
Outline: (§1)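 Selectivity profiling: MK2-targeting peptides tested on 266 human kinases. All activity determinations done in duplicate.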

[2] = target: WNK3(h) (Homo sapiens, UniProt Q9BYP7)
Chain of WNK3(h) (Q9BYP7 whole entry): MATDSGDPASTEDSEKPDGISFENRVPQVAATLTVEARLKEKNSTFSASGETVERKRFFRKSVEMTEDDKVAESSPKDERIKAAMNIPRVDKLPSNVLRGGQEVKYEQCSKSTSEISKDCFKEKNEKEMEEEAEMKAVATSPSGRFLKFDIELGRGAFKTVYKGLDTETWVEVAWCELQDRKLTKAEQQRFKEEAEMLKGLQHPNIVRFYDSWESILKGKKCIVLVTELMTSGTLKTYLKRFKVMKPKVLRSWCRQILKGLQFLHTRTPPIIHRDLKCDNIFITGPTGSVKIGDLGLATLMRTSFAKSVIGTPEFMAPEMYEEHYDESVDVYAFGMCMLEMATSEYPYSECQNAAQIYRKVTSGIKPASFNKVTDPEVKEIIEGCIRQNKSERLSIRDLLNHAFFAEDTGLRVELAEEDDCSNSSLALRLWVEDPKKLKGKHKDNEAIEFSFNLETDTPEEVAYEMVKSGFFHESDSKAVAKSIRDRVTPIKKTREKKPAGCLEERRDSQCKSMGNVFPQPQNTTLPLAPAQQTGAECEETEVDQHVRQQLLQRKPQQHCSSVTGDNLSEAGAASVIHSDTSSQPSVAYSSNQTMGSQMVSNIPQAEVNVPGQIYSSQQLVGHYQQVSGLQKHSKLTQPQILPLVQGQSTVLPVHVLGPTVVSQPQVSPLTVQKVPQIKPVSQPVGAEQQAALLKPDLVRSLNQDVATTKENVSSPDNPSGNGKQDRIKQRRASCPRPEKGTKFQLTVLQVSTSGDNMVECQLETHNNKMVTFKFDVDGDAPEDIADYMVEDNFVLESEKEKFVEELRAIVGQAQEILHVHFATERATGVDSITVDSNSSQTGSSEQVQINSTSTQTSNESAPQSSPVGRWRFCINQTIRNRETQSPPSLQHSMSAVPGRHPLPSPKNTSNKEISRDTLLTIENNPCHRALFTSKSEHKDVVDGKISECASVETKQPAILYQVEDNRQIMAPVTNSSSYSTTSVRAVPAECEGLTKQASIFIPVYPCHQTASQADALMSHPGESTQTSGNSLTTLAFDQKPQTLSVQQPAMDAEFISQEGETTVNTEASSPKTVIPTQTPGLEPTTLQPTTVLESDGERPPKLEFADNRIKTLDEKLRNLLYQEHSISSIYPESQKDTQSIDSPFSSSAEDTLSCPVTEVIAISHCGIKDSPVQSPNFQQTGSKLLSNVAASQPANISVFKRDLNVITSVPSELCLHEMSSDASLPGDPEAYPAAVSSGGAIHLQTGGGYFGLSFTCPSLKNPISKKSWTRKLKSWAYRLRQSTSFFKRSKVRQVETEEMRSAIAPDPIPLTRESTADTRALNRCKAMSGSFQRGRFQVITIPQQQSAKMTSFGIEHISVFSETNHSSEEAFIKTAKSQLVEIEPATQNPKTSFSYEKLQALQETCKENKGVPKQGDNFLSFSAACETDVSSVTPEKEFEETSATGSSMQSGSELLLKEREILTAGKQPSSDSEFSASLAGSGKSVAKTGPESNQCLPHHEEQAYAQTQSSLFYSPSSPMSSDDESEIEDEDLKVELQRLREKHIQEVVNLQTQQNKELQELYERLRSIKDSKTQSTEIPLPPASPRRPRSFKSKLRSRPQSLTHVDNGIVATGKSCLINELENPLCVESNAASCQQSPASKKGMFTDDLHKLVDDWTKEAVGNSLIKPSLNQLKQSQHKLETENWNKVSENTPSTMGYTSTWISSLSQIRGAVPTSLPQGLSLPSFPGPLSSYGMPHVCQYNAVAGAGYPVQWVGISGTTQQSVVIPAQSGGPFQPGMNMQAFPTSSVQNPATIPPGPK
Outline: as §1

[3] = target: T2, EphB2(h) (Homo sapiens, UniProt P29323)
T2 sequence (P29323 19-1055): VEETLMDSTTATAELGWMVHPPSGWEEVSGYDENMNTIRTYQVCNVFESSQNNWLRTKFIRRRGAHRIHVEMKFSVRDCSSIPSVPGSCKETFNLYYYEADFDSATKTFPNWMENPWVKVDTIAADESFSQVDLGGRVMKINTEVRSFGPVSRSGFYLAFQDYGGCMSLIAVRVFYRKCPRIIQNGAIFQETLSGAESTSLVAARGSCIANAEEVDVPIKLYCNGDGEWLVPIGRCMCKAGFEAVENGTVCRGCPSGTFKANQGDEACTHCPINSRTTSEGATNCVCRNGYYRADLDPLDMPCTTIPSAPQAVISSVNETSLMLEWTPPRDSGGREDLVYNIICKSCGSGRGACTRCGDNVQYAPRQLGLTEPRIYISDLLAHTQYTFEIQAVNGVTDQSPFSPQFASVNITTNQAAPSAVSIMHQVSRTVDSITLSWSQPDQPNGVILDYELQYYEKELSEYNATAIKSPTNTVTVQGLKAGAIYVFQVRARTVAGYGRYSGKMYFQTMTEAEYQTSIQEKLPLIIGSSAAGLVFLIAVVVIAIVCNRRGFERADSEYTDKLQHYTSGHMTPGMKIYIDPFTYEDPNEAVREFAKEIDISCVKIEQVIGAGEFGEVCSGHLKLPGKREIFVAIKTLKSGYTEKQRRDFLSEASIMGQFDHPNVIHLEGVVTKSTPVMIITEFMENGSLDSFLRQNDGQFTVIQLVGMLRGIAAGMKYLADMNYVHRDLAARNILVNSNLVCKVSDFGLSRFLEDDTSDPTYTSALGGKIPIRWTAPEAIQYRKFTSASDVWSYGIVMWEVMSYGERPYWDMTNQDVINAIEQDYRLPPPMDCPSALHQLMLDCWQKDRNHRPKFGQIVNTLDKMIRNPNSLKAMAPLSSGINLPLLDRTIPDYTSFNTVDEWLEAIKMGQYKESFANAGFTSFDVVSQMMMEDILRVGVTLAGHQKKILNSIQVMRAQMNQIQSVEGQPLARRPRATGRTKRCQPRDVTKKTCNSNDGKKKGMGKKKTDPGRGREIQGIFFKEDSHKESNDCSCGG
Outline: as §1

[4] = target: T3, DCAMKL2(h) (Homo sapiens, UniProt Q8N568)
T3 sequence (Q8N568 1-766): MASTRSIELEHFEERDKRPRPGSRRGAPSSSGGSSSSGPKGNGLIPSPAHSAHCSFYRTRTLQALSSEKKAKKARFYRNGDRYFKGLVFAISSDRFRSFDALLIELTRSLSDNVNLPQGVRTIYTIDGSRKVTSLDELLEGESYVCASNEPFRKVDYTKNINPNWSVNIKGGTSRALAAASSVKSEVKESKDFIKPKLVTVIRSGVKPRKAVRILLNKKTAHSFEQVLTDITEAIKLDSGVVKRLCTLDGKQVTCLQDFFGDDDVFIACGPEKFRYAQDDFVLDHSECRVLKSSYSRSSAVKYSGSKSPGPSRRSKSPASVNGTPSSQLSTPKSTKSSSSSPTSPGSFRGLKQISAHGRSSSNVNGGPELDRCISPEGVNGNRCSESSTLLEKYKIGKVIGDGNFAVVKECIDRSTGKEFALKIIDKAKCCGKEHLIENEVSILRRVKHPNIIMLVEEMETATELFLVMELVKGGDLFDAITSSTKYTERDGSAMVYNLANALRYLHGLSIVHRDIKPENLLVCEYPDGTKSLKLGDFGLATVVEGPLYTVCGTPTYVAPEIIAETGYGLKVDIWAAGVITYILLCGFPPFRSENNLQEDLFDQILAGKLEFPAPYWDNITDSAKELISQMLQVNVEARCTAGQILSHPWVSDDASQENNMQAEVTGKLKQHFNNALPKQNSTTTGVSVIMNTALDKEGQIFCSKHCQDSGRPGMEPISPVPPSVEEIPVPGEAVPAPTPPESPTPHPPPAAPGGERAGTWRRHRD
Outline: as §1

For FAKLAARLYRKALARQLGVAA [MMI-0300], which “DYRK2(h) % activity” value [1] is on record?
The value was 155%.

What about the “WNK3(h) % activity” value [2] of the same sequence?
Its value is 77%.

What about the “EphB2(h) % activity” value [3] of the same sequence?
Its value is 18%.

And the “DCAMKL2(h) % activity” value [4]?
Its value is 81%.

What does the source list for “HRRIKAWLKKIKALARQLGVAA (Mammalian) [MMI-0500]”?
DYRK2(h) % activity [1]: 127%; WNK3(h) % activity [2]: 9%; EphB2(h) % activity [3]: 70%; DCAMKL2(h) % activity [4]: 56%

KAFAKLAARLYRKALARQLGVAA [MMI-0400] was tested. Which “DYRK2(h) % activity” value [1] did it give?
The value was 195%.

And the “WNK3(h) % activity” value [2]?
The value was 74%.

What about the “EphB2(h) % activity” value [3] of the same sequence?
The value was 22%.

And the “DCAMKL2(h) % activity” value [4]?
Its value is 70%.

How did the “DYRK2(h) % activity” value [1] turn out when “YARAAARQARAKALNRQLGVA (Mammalian) [MMI-0200]” was run?
The value was 142%.

And the “WNK3(h) % activity” value [2]?
Its value is 97%.

What about the “EphB2(h) % activity” value [3] of the same sequence?
Its value is 128%.

And the “DCAMKL2(h) % activity” value [4]?
The value was 131%.
